In publication PMC11734722:

Columns and labels:
[1] = molecular target: α-synuclein monomer (not stated (mouse or human recombinant monomer bought)) (UniProt O55042); test: MST
[2] = molecular target: β-synuclein (β-syn) peptide, 36 to 45 amino acids, all D type; test: ITC

Row | Substance | Kd [1] [µM] | Kd [2] [µM]
1 | α-synuclein monomer (from UniProt O55042 1-140) (natural protein) | 43.8 | –
2 | α-synuclein preformed fibrils (α-syn PFF) (from UniProt O55042 1-140) (natural protein) | – | 0.386
